Measured values as given in the supplement of paper PMC5998384.

What was measured:
HeLa Kyoto [1] = test: melting temperature (median over replicates), in situ; higher = more thermally stable
HeLa Kyoto [2] = test: solubility change mitosis vs G1/S (difference of NP-40 vs SDS log2 ratios) (log2 ratio difference); higher = more soluble in mitosis
HeLa Kyoto [3] = test: solubility in G1/S (NP-40 vs SDS abundance) (log2 ratio); higher = more soluble; conditions: cell cycle stage: G1/S
HeLa Kyoto [4] = test: thermal stability score vs G1/S (z-score of summed log2 fold changes over temperatures); higher = more thermally stable than in G1/S
[5] = cell cycle stage: early G1 (4.5 h after nocodazole release)
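For melting temperature (median over replicates), in situ in this document: HeLa Kyoto cells synchronized by double thymidine or nocodazole block, proteins quantified by TMT10plex mass spectrometry, three independent biological replicates.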
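For solubility change mitosis vs G1/S (difference of NP-40 vs SDS log2 ratios) in this document: synchronized HeLa Kyoto cells (double thymidine block for G1/S, nocodazole release for mitosis), protein amounts in NP-40 versus SDS lysates quantified by mass spectrometry, three biological replicates.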
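For solubility in G1/S (NP-40 vs SDS abundance) in this document: HeLa Kyoto cells arrested at G1/S by double thymidine block, proteins quantified by TMT10plex mass spectrometry in mild NP-40 versus SDS extracts, three biological replicates.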
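For thermal stability score vs G1/S (z-score of summed log2 fold changes over temperatures) in this document: synchronized HeLa Kyoto cells, proteins quantified by TMT10plex mass spectrometry, three biological replicates, mitosis taken 0.5 h after nocodazole release, G1/S directly after double thymidine block.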

Row | Substance | melting temperature (HeLa Kyoto [1]; cell cycle stage: G1/S) [°C] | melting temperature (HeLa Kyoto [1]; cell cycle stage: mitosis) [°C] | solubility change mitosis (log2) (HeLa Kyoto [2]) | solubility in G1/S (log2) (HeLa Kyoto [3]) | thermal stability score (HeLa Kyoto [4]; [5]) | thermal stability score (HeLa Kyoto [4]; cell cycle stage: mitosis)
1 | MAAALFVLLGFALLGTHGASGAAGFVQAPLSQQRWVGGSVELHCEAVGSPVPEIQWWFEGQGPNDTCSQLWDGARLDRVHIHATYHQHAASTISIDTLVEEDTGTYECRASNDPDRNHLTRAPRVKWVRAQAVVLVLEPGTVFTTVEDLGSKILLTCSLNDSATEVTGHRWLKGGVVLKEDALPGQKTEFKVDSDDQWGEYSCVFLPEPMGTANIQLHGPPRVKAVKSSEHINEGETAMLVCKSESVPPVTDWAWYKITDSEDKALMNGSESRFFVSSSQGRSELHIENLNMEADPGQYRCNGTSSKGSDQAIITLRVRSHLAALWPFLGIVAEVLVLVTIIFIYEKRRKPEDVLDDDDAGSAPLKSSGQHQNDKGKNVRQRNSS [BSG] | 59.1 | 59.8 | -0.00749 | 0.205 | -0.849 | -2.75
2 | MLSSCVRPVPTTVRFVDSLICNSSRSFMDLKALLSSLNDFASLSFAESWDNVGLLVEPSPPHTVNTLFLTNDLTEEVMEEVLQKKADLILSYHPPIFRPMKRITWNTWKERLVIRALENRVGIYSPHTAYDAAPQGVNNWLAKGLGACTSRPIHPSKAPNYPTEGNHRVEFNVNYTQDLDKVMSAVKGIDGVSVTSFSARTGNEEQTRINLNCTQKALMQVVDFLSRNKQLYQKTEILSLEKPLLLHTGMGRLCTLDESVSLATMIDRIKRHLKLSHIRLALGVGRTLESQVKVVALCAGSGSSVLQGVEADLYLTGEMSHHDTLDAASQGINVILCEHSNTERGFLSDLRDMLDSHLENKINIILSETDRDPLQVV [NIF3L1] | 60.8 | 60.7 | -0.161 | 0.187 | -0.711 | -0.332
3 | MAGAIIENMSTKKLCIVGGILLVFQIIAFLVGGLIAPGPTTAVSYMSVKCVDARKNHHKTKWFVPWGPNHCDKIRDIEEAIPREIEANDIVFSVHIPLPHMEMSPWFQFMLFILQLDIAFKLNNQIRENAEVSMDVSLAYRDDAFAEWTEMAHERVPRKLKCTFTSPKTPEHEGRYYECDVLPFMEIGSVAHKFYLLNIRLPVNEKKKINVGIGEIKDIRLVGIHQNGGFTKVWFAMKTFLTPSIFIIMVWYWRRITMMSRPPVLLEKVIFALGISMTFINIPVEWFSIGFDWTWMLLFGDIRQGIFYAMLLSFWIIFCGEHMMDQHERNHIAGYWKQVGPIAVGSFCLFIFDMCERGVQLTNPFYSIWTTDIGTELAMAFIIVAGICLCLYFLFLCFMVFQVFRNISGKQSSLPAMSKVRRLHYEGLIFRFKFLMLITLACAAMTVIFFIVSQVTEGHWKWGGVTVQVNSAFFTGIYGMWNLYVFALMFLYAPSHKNYGEDQSNGDLGVHSGEELQLTTTITHVDGPTEIYKLTRKEAQE [WLS] | 54.2 | 54.2 | -0.236 | -0.178 | 0.834 | 2.64
4 | MDIRKFFGVIPSGKKLVSETVKKNEKTKSDEETLKAKKGIKEIKVNSSRKEDDFKQKQPSKKKRIIYDSDSESEETLQVKNAKKPPEKLPVSSKPGKISRQDPVTYISETDEEDDFMCKKAASKSKENGRSTNSHLGTSNMKKNEENTKTKNKPLSPIKLTPTSVLDYFGTGSVQRSNKKMVASKRKELSQNTDESGLNDEAIAKQLQLDEDAELERQLHEDEEFARTLAMLDEEPKTKKARKDTEAGETFSSVQANLSKAEKHKYPHKVKTAQVSDERKSYSPRKQSKYESSKESQQHSKSSADKIGEVSSPKASSKLAIMKRKEESSYKEIEPVASKRKENAIKLKGETKTPKKTKSSPAKKESVSPEDSEKKRTNYQAYRSYLNREGPKALGSKEIPKGAENCLEGLIFVITGVLESIERDEAKSLIERYGGKVTGNVSKKTNYLVMGRDSGQSKSDKAAALGTKIIDEDGLLNLIRTMPGKKSKYEIAVETEMKKESKLERTPQKNVQGKRKISPSKKESESKKSRPTSKRDSLAKTIKKETDVFWKSLDFKEQVAEETSGDSKARNLADDSSENKVENLLWVDKYKPTSLKTIIGQQGDQSCANKLLRWLRNWQKSSSEDKKHAAKFGKFSGKDDGSSFKAALLSGPPGVGKTTTASLVCQELGYSYVELNASDTRSKSSLKAIVAESLNNTSIKGFYSNGAASSVSTKHALIMDEVDGMAGNEDRGGIQELIGLIKHTKIPIICMCNDRNHPKIRSLVHYCFDLRFQRPRVEQIKGAMMSIAFKEGLKIPPPAMNEIILGANQDIRQVLHNLSMWCARSKALTYDQAKADSHRAKKDIKMGPFDVARKVFAAGEETAHMSLVDKSDLFFHDYSIAPLFVQENYIHVKPVAAGGDMKKHLMLLSRAADSICDGDLVDSQIRSKQNWSLLPAQAIYASVLPGELMRGYMTQFPTFPSWLGKHSSTGKHDRIVQDLALHMSLRTYSSKRTVNMDYLSLLRDALVQPLTSQGVDGVQDVVALMDTYYLMKEDFENIMEISSWGGKPSPFSKLDPKVKAAFTRAYNKEAHLTPYSLQAIKASRHSTSPSLDSEYNEELNEDDSQSDEKDQDAIETDAMIKKKTKSSKPSKPEKDKEPRKGKGKSSKK [RFC1] | 47.2 | 49.5 | 0.447 | -0.641 | 3.61 | 4.94
5 | GNL2 | 51.2 | 52.7 | 1.08 | -2.3 | 4.89 | 6.37
6 | MATGQKLMRAVRVFEFGGPEVLKLRSDIAVPIPKDHQVLIKVHACGVNPVETYIRSGTYSRKPLLPYTPGSDVAGVIEAVGDNASAFKKGDRVFTSSTISGGYAEYALAADHTVYKLPEKLDFKQGAAIGIPYFTAYRALIHSACVKAGESVLVHGASGGVGLAACQIARAYGLKILGTAGTEEGQKIVLQNGAHEVFNHREVNYIDKIKKYVGEKGIDIIIEMLANVNLSKDLSLLSHGGRVIVVGSRGTIEINPRDTMAKESSIIGVTLFSSTKEEFQQYAAALQAGMEIGWLKPVIGSQYPLEKVAEAHENIIHGSGATGKMILLL [CRYZ] | 55.2 | 55 | -0.187 | 0.212 | -0.614 | -0.806
7 | MAASAAAASAAAASAASGSPGPGEGSAGGEKRSTAPSAAASASASAAASSPAGGGAEALELLEHCGVCRERLRPEREPRLLPCLHSACSACLGPAAPAAANSSGDGGAAGDGTVVDCPVCKQQCFSKDIVENYFMRDSGSKAATDAQDANQCCTSCEDNAPATSYCVECSEPLCETCVEAHQRVKYTKDHTVRSTGPAKSRDGERTVYCNVHKHEPLVLFCESCDTLTCRDCQLNAHKDHQYQFLEDAVRNQRKLLASLVKRLGDKHATLQKSTKEVRSSIRQVSDVQKRVQVDVKMAILQIMKELNKRGRVLVNDAQKVTEGQQERLERQHWTMTKIQKHQEHILRFASWALESDNNTALLLSKKLIYFQLHRALKMIVDPVEPHGEMKFQWDLNAWTKSAEAFGKIVAERPGTNSTGPAPMAPPRAPGPLSKQGSGSSQPMEVQEGYGFGSGDDPYSSAEPHVSGVKRSRSGEGEVSGLMRKVPRVSLERLDLDLTADSQPPVFKVFPGSTTEDYNLIVIERGAAAAATGQPGTAPAGTPGAPPLAGMAIVKEEETEAAIGAPPTATEGPETKPVLMALAEGPGAEGPRLASPSGSTSSGLEVVAPEGTSAPGGGPGTLDDSATICRVCQKPGDLVMCNQCEFCFHLDCHLPALQDVPGEEWSCSLCHVLPDLKEEDGSLSLDGADSTGVVAKLSPANQRKCERVLLALFCHEPCRPLHQLATDSTFSLDQPGGTLDLTLIRARLQEKLSPPYSSPQEFAQDVGRMFKQFNKLTEDKADVQSIIGLQRFFETRMNEAFGDTKFSAVLVEPPPMSLPGAGLSSQELSGGPGDGP [TRIM28] | 48.2 | 49.2 | -0.0696 | 0.119 | 1.33 | 6.59
8 | MAAPGAPAEYGYIRTVLGQQILGQLDSSSLALPSEAKLKLAGSSGRGGQTVKSLRIQEQVQQTLARKGRSSVGNGNLHRTSSVPEYVYNLHLVENDFVGGRSPVPKTYDMLKAGTTATYEGRWGRGTAQYSSQKSVEERSLRHPLRRLEISPDSSPERAHYTHSDYQYSQRSQAGHTLHHQESRRAALLVPPRYARSEIVGVSRAGTTSRQRHFDTYHRQYQHGSVSDTVFDSIPANPALLTYPRPGTSRSMGNLLEKENYLTAGLTVGQVRPLVPLQPVTQNRASRSSWHQSSFHSTRTLREAGPSVAVDSSGRRAHLTVGQAAAGGSGNLLTERSTFTDSQLGNADMEMTLERAVSMLEADHMLPSRISAAATFIQHECFQKSEARKRVNQLRGILKLLQLLKVQNEDVQRAVCGALRNLVFEDNDNKLEVAELNGVPRLLQVLKQTRDLETKKQITDHTVNLRSRNGWPGAVAHACNPSTLGGQGGRITRSGVRDQPDQHGLLWNLSSNDKLKNLMITEALLTLTENIIIPFSGWPEGDYPKANGLLDFDIFYNVTGCLRNMSSAGADGRKAMRRCDGLIDSLVHYVRGTIADYQPDDKATENCVCILHNLSYQLEAELPEKYSQNIYIQNRNIQTDNNKSIGCFGSRSRKVKEQYQDVPMPEEKSNPKGVEWLWHSIVIRMYLSLIAKSVRNYTQEASLGALQNLTAGSGPMPTSVAQTVVQKESGLQHTRKMLHVGDPSVKKTAISLLRNLSRNLSLQNEIAKETLPDLVSIIPDTVPSTDLLIETTASACYTLNNIIQNSYQNARDLLNTGGIQKIMAISAGDAYASNKASKAASVLLYSLWAHTELHHAYKKAQFKKTDFVNSRTAKAYHSLKD [PKP2] | 50.7 | 49.9 | 0.0433 | -0.953 | -1.03 | -0.99
9 | MERSPGEGPSPSPMDQPSAPSDPTDQPPAAHAKPDPGSGGQPAGPGAAGEALAVLTSFGRRLLVLIPVYLAGAVGLSVGFVLFGLALYLGWRRVRDEKERSLRAARQLLDDEEQLTAKTLYMSHRELPAWVSFPDVEKAEWLNKIVAQVWPFLGQYMEKLLAETVAPAVRGSNPHLQTFTFTRVELGEKPLRIIGVKVHPGQRKEQILLDLNISYVGDVQIDVEVKKYFCKAGVKGMQLHGVLRVILEPLIGDLPFVGAVSMFFIRRPTLDINWTGMTNLLDIPGLSSLSDTMIMDSIAAFLVLPNRLLVPLVPDLQDVAQLRSPLPRGIIRIHLLAARGLSSKDKYVKGLIEGKSDPYALVRLGTQTFCSRVIDEELNPQWGETYEVMVHEVPGQEIEVEVFDKDPDKDDFLGRMKLDVGKVLQASVLDDWFPLQGGQGQVHLRLEWLSLLSDAEKLEQVLQWNWGVSSRPDPPSAAILVVYLDRAQDLPLKKGNKEPNPMVQLSIQDVTQESKAVYSTNCPVWEEAFRFFLQDPQSQELDVQVKDDSRALTLGALTLPLARLLTAPELILDQWFQLSSSGPNSRLYMKLVMRILYLDSSEICFPTVPGCPGAWDVDSENPQRGSSVDAPPRPCHTTPDSQFGTEHVLRIHVLEAQDLIAKDRFLGGLVKGKSDPYVKLKLAGRSFRSHVVREDLNPRWNEVFEVIVTSVPGQELEVEVFDKDLDKDDFLGRCKVRLTTVLNSGFLDEWLTLEDVPSGRLHLRLERLTPRPTAAELEEVLQVNSLIQTQKSAELAAALLSIYMERAEDLPLRKGTKHLSPYATLTVGDSSHKTKTISQTSAPVWDESASFLIRKPHTESLELQVRGEGTGVLGSLSLPLSELLVADQLCLDRWFTLSSGQGQVLLRAQLGILVSQHSGVEAHSHSYSHSSSSLSEEPELSGGPPHITSSAPELRQRLTHVDSPLEAPAGPLGQVKLTLWYYSEERKLVSIVHGCRSLRQNGRDPPDPYVSLLLLPDKNRGTKRRTSQKKRTLSPEFNERFEWELPLDEAQRRKLDVSVKSNSSFMSRERELLGKVQLDLAETDLSQGVARWYDLMDNKDKGSS [ESYT1] | 49.1 | 50.1 | -0.113 | 0.0161 | 2.16 | 4.68
10 | MSHTEVKLKIPFGNKLLDAVCLVPNKSLTYGIILTHGASGDMNLPHLMSLASHLASHGFFCLRFTCKGLNIVHRIKAYKSVLNYLKTSGEYKLAGVFLGGRSMGSRAAASVMCHIEPDDGDDFVRGLICISYPLHHPKQQHKLRDEDLFRLKEPVLFVSGSADEMCEKNLLEKVAQKMQAPHKIHWIEKANHSMAVKGRSTNDVFKEINTQILFWIQEITEMDKKCH [TEX30] | 48.7 | 49 | -0.146 | 0.199 | 0.36 | 0.539
